{
  "source": "the DeepSol protein solubility set",
  "data": [
    {"assay": "soluble on expression in E. coli; label from the status in PepcDB or PDB records", "values": [
      {"sequence": "MSKISQQNSTPGVNGISVIHTQAHASGLQQVPQLVPAGPGGGGKAVAPSKQSKKSSPMDRNSDEYRQRRERNNMAVKKSRLKSKQKAQDTLQRVNQLKEENERLEAKIKLLTKELSVLKDLFLEHAHNLADNVQSISTENTTADGDNAGQ", "soluble on expression in E. coli": "soluble"},
      {"sequence": "MGQPIITRDAGRYFLTDRIRHEVDWWNTPQARGEEPPPVQKPVAPGAMVIPLPPPATWGIPPCSLADGIARRESRRRFRAVPLTPEELAFLLWATQGVRARLNEAAVLRTVPSAGCRHPFETYLAILSVTGIEPAVYRYLPLDHALVLEREVPDLAATVTAAAHGQRFAGEAAVTFVWTAIPARTEWRYAEASYKVIALDAGHVCQNLYLACEAIGAGTCAIAAYRQALADELLGVDGREEFTVYLAPVGKV", "soluble on expression in E. coli": "not soluble"},
      {"sequence": "SETQSFVVSVAGSDRVGIVHDFSWALKNISANVESSRMACLGGDFAMIVLVSLNAKDGKLIQSALESALPGFQISTRRASSVAERHVSPDTREYELYVEGPDSEGIVEAVTAVLAKKGANIVELETETLPAPFAGFTLFRMGSRVAFPFPLYQEVVTALSRVEEEFGVDIDLEEVVEGEDSEEDDDSPNSPVGRH", "soluble on expression in E. coli": "soluble"},
      {"sequence": "MGSDKIHHHHHHMSELPNSHATTLLAAPDTEIDVRETFGIDIDMKVPAFSRADERVPDRDDTYVFDPDTTLAILAGFAYNRRVMVQGYHGTGKSTHIEQVAARLNWPCIRINLDAHISRIDLVGRDAIVLRDGLQVTEFREGLLPWALQTPTALVFDEYDAGRPDVMFVIQRVLETEGKLTLLDQNRVIRPNKFFRLFATANTVGLGDTSGLYHGTQAINQGQMDRWNLVVALNYLPEATEVEIVTKKVPDLDPKIVTDMVRVANLTRQGFINGDISTVMSPRTVISWAQNSQIFNDVGFAFRLSFLNKCDETERVLVAEYYQRVFGKDLPESVAHRG", "soluble on expression in E. coli": "not soluble"},
      {"sequence": "YHPVFSAKIEQRLIERFGVKRALVALDQPNEEAQRLQVSGLVSNYLTSTLKNGMVVTVGQGRNVSSVAHHIGVITPRDCKFVCGIGGIHPRGGMYNADHICRQLAKKYGGTSETLYAPAYAENREQKMAFMQNATVKQTLDLARKADVALVGIGDMSENSYMVDLGWFTPDEVVQSRLKQGVVGDFAGYDFFDIHGNVANTVMSDRVIGLGIEEFRPIAEVIAIAAENSKPLALLGALRTGAIDVIATSVSNALTVLNLDEQMHGNAASES", "soluble on expression in E. coli": "not soluble"},
      {"sequence": "LEKMQAHGLDKVEYKVCTNPGMEPDSLNKIASGGELSRISLAIQMITAQKGSTPTLLFDEVDVGIGGSTAALVGKMLRKLGERLQVFCVTHQPQVAASAHHHFLVTKHSNNNQTFTHISLLKASDKIAEIARMMGGLTITEQTLSHAKELISLSNE", "soluble on expression in E. coli": "not soluble"},
      {"sequence": "MGSDKIHHHHHHMSDKFGEGRDPYLYPGLDIMRNRLNIRQQQRLEQAAYEMTALRAATIELGPLVRGLPHLRTIHRQLYQDIFDWAGQLREVDIYQGDTPFCHFAYIEKEGNALMQDLEEEGYLVGLEKAKFVERLAHYYCEINVLHPFRVGSGLAQRIFFEQLAIHAGYQLSWQGIEKEAWNQANQSGAMGDLTALQMIFSKVVSEAGESE", "soluble on expression in E. coli": "not soluble"},
      {"sequence": "MAHHHHHHMSGDLLEILGESRNWVLKRHRVLGKGGFGCATLYEEVHTPGSFVVVKDINMQIMKKEEEMKAVEMEVAILRRSCGHPNIVQFLDYYHDGQFMMYIVMEYCEGGDLARLEEQMQFRVFHQPERFVASILIQMLVGLYYLHVDQHTLHRDIKPQNVFLCSDGTIRIGDFGVSTVLNQYGCRAKAVCGSPFYMAPELCEEKAYDGKADLWSLGVMMYELMVLERPFNAKSIPALTRQIIHGEFSPIPRELHYSAQLVEMVESFLQTSPTARPTLRRVLRSSYVHSHLDCVPIVCLLSDHYARLFGEELLQQILQKHKDSTNTTSQVTTVVSRNSASVQEVERCKNHSDHSDSASAQPLAHQEISELEQWLEANGDVTDAFIDAQLPRNRADGQELSNSPSDIGRAVKTGRVFSDDIMDDSISSEQGKGQQAEDDVRDDFYEDDFESESSG", "soluble on expression in E. coli": "soluble"},
      {"sequence": "STSLPQISTLMREKSVENKLKVKAKDDHMVPSGLYEVRAIQLPGGSWRHYYVDHSSKETYWILPYSHPDGASSHPLEKLPVYLPSYEECVDETNPLAVPEVCSPARD", "soluble on expression in E. coli": "soluble"},
      {"sequence": "MGSDKIHHHHHHMSVLKGSQNVTICNANGLKLAARLELPDIPPRGMAMIAPAFGCTKEILIASRTARRLLQYGIGSLRLDFTGIGQSEGDFSMTNLDTQVEDFVSAADWLRQHVAAPNILIGHSFGGLVALNACHSIPESRACVTIATPESPAHVLEIIGEDKTREIMQGGATSIEVNRQPYVLRRQFADHARQFRLHDTMQRLRVPVLIMHSPRDEMVPMRHAHAIFETARHPKSLLAIEDADHMVSERPAAEFVASTIGLWGMRYLTDG", "soluble on expression in E. coli": "not soluble"},
      {"sequence": "MSLSYKKIAIITGANSGFGKEFLKLLINEEEITEIWAVARNKARLNQLVDEFGSKVKIFSKDLSKIEEVKEIGTFLSKENVCIKYLINNAGFAKFCSYNDLSIDESINMIDLNISAVVALGLICIPYMQKGSHIMNISSQASFQPLPYQNIYSSTKAFIRNYTRALNVELKSKGINAIAVCPGWMSTNLFKRGIVVAEKGTKNFPGIVSPDVVAKKALKDAKKNKDISVYGINTKSSHLLAKLLPQKMMMKVWLMQQHIKEGHHHHHH", "soluble on expression in E. coli": "soluble"},
      {"sequence": "MGSLDLPYASSFKGGSETFLQNVFESILKTYLRKNPMAKTIWELVKSVDNEKISYDHFFFRTFKVDGYGIDSLASFFMDYGYKVGGRLDFPKKKVQVLWLSPPDVHFPDNGYGIGNGPLPRLVIAELLVEELSPESQEIIRKYLKPEGGKQAVLSSTLGSLIWEKPTSTDFNQLAKESEFAAWTLVYGYTMNHLAFAVHRLKHRFSDIKCVKEYFEENGFELNKDGGVLKVSEDSLLLQVSAMSEKLVVEFADGVTQIVPASYIEFVERLVLPQFKDMPCDEIKEFHRREGLEQASAYHIMESTRFTA", "soluble on expression in E. coli": "soluble"},
      {"sequence": "MEYFNVGKIVNTQGLQGEMRVLSVSDFAEERFKKGSQLALFDDKDRFVQEVTIVSHRKQKHFDIIKFKDMYHINAIEKYKGYTLKVSKDNQGDLQEGEFYYHQIIGMAVYEKDVLIGHVKEILQPGANDVWIVKRQGKRDLLLPYIPPVVLNVDVPNKRVDVELMEGLDDED", "soluble on expression in E. coli": "not soluble"},
      {"sequence": "MARNNNQVKRDAAGRLFFLLDRQYRLVIQQVVALKPHVLAIAARQGMFVAKAYRFPVAAARHAWLLAALRKAGFSAAPAPMPIGRGGVVEAGGCYWLLTEYVAGARPISFAAWADAADGLHLLERYHTITANIASSKQEAMGLPRAQLYDKWRRRYEEFCRHLPVVETIMDKEDILFTLSWADYCLSTCREHAPELTADSAAIIHGDVASHNFLRTTTGQMYLIDYDAAALASPGLDYCQYANRLLPYIGWSYSTLARFAPLRRWLEKRWFLHALLFPADVFREWRSAAARRRPLVFDRKRRERFVRRLYAMLQ", "soluble on expression in E. coli": "not soluble"},
      {"sequence": "VCQILEVDRSTYHYKSRRPGQASLESKIKEICQTRVRYGYRRVHVLLRREGWLINQKKTRRIYRELGLQLRNKTPKRRVRAKLRDDRRDATHPNETWAMDFVHDQLATGNKIRVLTVVDLFSRYSPVLDPRFSYRAENVVQTLEHTWAAVGYPKTIRVDQGSEFISRELDLWAYSNGVTLDFSRPGKPTDNAFIEAFNGRFRAECLNTHWFLTLDDARSKLEDWRRYYNEQRPHGAIGNRPPITLHNRDSDPSSPS", "soluble on expression in E. coli": "soluble"},
      {"sequence": "MSLKIRSLHTDALKKLAVKCEDLFMAGQKDQLRFGVDSWSDFRLTSDKPCCEAGDAVYYTASYAKDPLNNYAVKICKSKAKESQQYYHSLAVRQSLAVHFNIQQDCGHFLAEVPNRLLPWEDPDDPEKDEDDMEETEEDAKGETDGKNPKPCSEAASSQKENQGVMSKKQRSHVVVITREVPCLTVADFVRDSLAQHGKSPDLYERQVCLLLLQLCSGLEHLKPYHVTHCDLRLENLLLVHYQPGGTAQGFGPAEPSPTSSYPTRLIVSNFSQAKQKSHLVDPEILRDQSRLAPEIITATQYKKCDEFQTGILIYEMLHLPNPFDENPELKEREYTRADLPRIPFRSPYSRGLQQLASCLLNPNPSERILISDAKGILQCLLWGPREDLFQTFTACPSLVQRNTLLQNWLDIKRTLLMIKFAEKSLDREGGISLEDWLCAQYLAFAEGHHHHHH", "soluble on expression in E. coli": "not soluble"},
      {"sequence": "QSPAEIASFSPRPSLADSKAVLNQAVADLSVAHSILHQVHWYMRGRGFMIWHPKMDEYMEEIDGYLDEMSERLITLGGAPFSTLKEFSENSQLKEVLGDYNVTIEEQLARVVEVFRYLAALFQKGFDVSDEEGDSVTNDIFNVAKASIEKHIWMLQAELGQAPKL", "soluble on expression in E. coli": "soluble"},
      {"sequence": "MSDPHQSQQLVTAGTALSEASAAAVLVHGRGATARSIVQMGAEFQQDGLALLAPQAARNTWYPNSFLSPVEQNEPGRSSGLQAIEDAVTKAAEAGIPTDHVLILGFSQGACLASEFVARNPQRYGGLVALSGGLIGESIDESEYEGDIEETPVFLGCSNVDPHIPEERVHVTASVFERLNGDVEERIYEGMGHGVNEDELAYVSSLTAGLVN", "soluble on expression in E. coli": "not soluble"},
      {"sequence": "MDTDIRDFIIEDDLFDPFMDENEDDDRAEIDEEPETPLIGEPLDEWKKPVEDWRPAQVRIKDLFEEMPGQKRMMLKIIDYCREERTGEEMDVFTNDLKQYCYSVYSPVVFRELLEEAGAIEYIKPDEPEGSQDAAQSEERAQAGGELPEEAVSPHRGDVYGTLPVDDESTLVPIDGADIVHESYIEGDEEIQMDFLEITPCEPGTWKATEAGLEAVDSMDDLDGTKELLGKEPKYLDIYHQILDYCQDEYGRSSKEIDKLVNDSPLLEEPRRYSGYFVSRLEKQGALEWRNGWFVTEVGKKIIEEAAAHV", "soluble on expression in E. coli": "not soluble"},
      {"sequence": "MNQLVCPLCCETLKEEGAHFYKHFKYKRYACGESTCDMGFYTQQELNAHCSKHGHKRSFQKTVNPYIDKMISVVVEDAYALATDDMETVLEKRWGRDPRSVSPTSPVKKTPTDSAKNKRSSVVTPTSPPVPKKAKSGTSTTSPFAFLNRRTNNSESSLCPNASSTSAQPASSSSAQAIVDSTTSEHNISIDKTKKPRKKRNESMTAAQNQEKAGKNANYDEMSAIDKLIGWFDPNVPERRDAAKVKCAVCNEEIVYDFILRKGHVTRSHMAADVAPEDYDDLLKTAMDRSYPDLPNSDLACQLCMTGAEVRKNMRREHIEKLHTTSLPPLTCPVGECEKGFRRQCDLSSHMKDTHKASMAVYKNATFQQVRRRRNAMINEMINKCFPWSRLEAIENKTVVGEKSDSVNRAPVDRSFDTDVRVRDVNKTRRAPQYNANRSSSSDSDSEHEEAASVATGEVSETGGTDDFPQDVIYICHQFNTEVAQKLSQIVRIKPEIIDVEDVLMNDVTMEINEIPVKEETEEEQPKEENNSTLPSIPIPSIFSPYEPIVPPPATSPDPMNPPIASLLPTRILSATNVLENKYNENVSSRRSTSRERSSNRNYDERWSRNDYSNPRNYSNRSFHQRNQRGHSSSNRFNSPFVSRNNYNNNSETTEGSSRRSEYNSSSSNHHSRSSYRGNRDDRGSRW", "soluble on expression in E. coli": "not soluble"},
      {"sequence": "MKKISIEERPDWRATAEREGFNFHTIDGERYWDERGYYLFTEQQITRDLEAPTQALHQMCMDAVARVVDSEELLHQLAIPPAFFDVIQTSWKQGHPHLYARFDFAYDGTGPAKMYEINADTPTSLMEAGAFQLLWLEEQMARGVLPAHASQFNSIAEDLVRAFAEFPGASPFYFAAMSGSVEDRVTTDFLRRMAAHVGIDARHIDIEDIGLNDQGRFVDLDGRWIERLFKLHAWEHIFHEAFGKNVTASGTQFVEPAWKAILSNKGILPLLWQFNEGHPNLLPSRVDQDVTKPVPKGWVRKPYFSREGANIEMRTPGDQVIAVDGPYTDAPYILQAYSPLPKFGDSYTLIGSWVIGDLASGIGIREDDSLITKDTSRFLPHVVID", "soluble on expression in E. coli": "not soluble"},
      {"sequence": "MRLTSKGRYAVTAMLDVALNSEAGPVPLADISERQGISLSYLEQLFSRLRKNGLVSSVRGPGGGYLLGKDASSIAVGEVISAVDESVDATRCQGKGGCQGGDKCLTHALWRDLSDRLTGFLNNITLGELVNNQEVLDVSGRQHTHDAPRTRTQDAIDVKLRA", "soluble on expression in E. coli": "soluble"}
    ]}
  ]
}
